# Source: paper PMC4930482
# B1: RNF26, wild type (coIP of Figures 5A and 5B) [not stated] / EPS15 (endogenous) [human (endogenous in a human melanoma cell line and in HEK293T)] (parent)
# chain 1: MEAVYLVVNGLGLVLDVLTLVLDLNFLLVSSLLASLAWLLAFVYNLPHTVLTSLLHLGRGVLLSLLALIEAVVRFTCGGLQALCTLLYSCCSGLESLKLLGHLASHGALRSREILHRGVLNVVSSGHALLRQACDICAIAMSLVAYVINSLVNICLIGTQNLFSLVLALWDAVTGPLWRMTDVVAAFLAHISSSAVAMAILLWTPCQLALELLASAARLLASFVLVNLTGLVLLACVLAVTVTVLHPDFTLRLATQALSQLHARPSYHRLREDVMRLSRLALGSEAWRRVWSRSLQLASWPNRGGAPGAPQGDPMRVFSVRTRRQDTLPEAGRRSEAEEEEARTIRVTPVRGRERLNEEEPPGGQDPWKLLKEQEERKKCVICQDQSKTVLLLPCRHLCLCQACTEILMRHPVYHRNCPLCRRGILQTLNVYL
# chain 2: MAAAAQLSLTQLSSGNPVYEKYYRQVDTGNTGRVLASDAAAFLKKSGLPDLILGKIWDLADTDGKGILNKQEFFVALRLVACAQNGLEVSLSSLNLAVPPPRFHDTSSPLLISGTSAAELPWAVKPEDKAKYDAIFDSLSPVNGFLSGDKVKPVLLNSKLPVDILGRVWELSDIDHDGMLDRDEFAVAMFLVYCALEKEPVPMSLPPALVPPSKRKTWVVSPAEKAKYDEIFLKTDKDMDGFVSGLEVREIFLKTGLPSTLLAHIWSLCDTKDCGKLSKDQFALAFHLISQKLIKGIDPPHVLTPEMIPPSDRASLQKNIIGSSPVADFSAIKELDTLNNEIVDLQREKNNVEQDLKEKEDTIKQRTSEVQDLQDEVQRENTNLQKLQAQKQQVQELLDELDEQKAQLEEQLKEVRKKCAEEAQLISSLKAELTSQESQISTYEEELAKAREELSRLQQETAELEESVESGKAQLEPLQQHLQDSQQEISSMQMKLMEMKDLENHNSQLNWCSSPHSILVNGATDYCSLSTSSSETANLNEHVEGQSNLESEPIHQESPARSSPELLPSGVTDENEVTTAVTEKVCSELDNNRHSKEEDPFNVDSSSLTGPVADTNLDFFQSDPFVGSDPFKDDPFGKIDPFGGDPFKGSDPFASDCFFRQSTDPFATSSTDPFSAANNSSITSVETLKHNDPFAPGGTVVAASDSATDPFASVFGNESFGGGFADFSTLSKVNNEDPFRSATSSSVSNVVITKNVFEETSVKSEDEPPALPPKIGTPTRPCPLPPGKRSINKLDSPDPFKLNDPFQPFPGNDSPKEKDPEIFCDPFTSATTTTNKEADPSNFANFSAYPSEEDMIEWAKRESEREEEQRLARLNQQEQEDLELAIALSKSEISEA
# B2: RNF26, wild type (coIP of Figures 5A and 5B) [not stated] / TOLLIP (endogenous) [human (endogenous in a human melanoma cell line and in HEK293T)] (parent)
# chain 1: B1 chain 1
# chain 2: not shown
# B3: RNF26, wild type (coIP of Figures 5A and 5B) [not stated] / USP15 (endogenous) [human (endogenous in a human melanoma cell line and in HEK293T)] (parent)
# chain 1: B1 chain 1
# chain 2: MAEGGAADLDTQRSDIATLLKTSLRKGDTWYLVDSRWFKQWKKYVGFDSWDKYQMGDQNVYPGPIDNSGLLKDGDAQSLKEHLIDELDYILLPTEGWNKLVSWYTLMEGQEPIARKVVEQGMFVKHCKVEVYLTELKLCENGNMNNVVTRRFSKADTIDTIEKEIRKIFSIPDEKETRLWNKYMSNTFEPLNKPDSTIQDAGLYQGQVLVIEQKNEDGTWPRGPSTPKSPGASNFSTLPKISPSSLSNNYNNMNNRNVKNSNYCLPSYTAYKNYDYSEPGRNNEQPGLCGLSNLGNTCFMNSAIQCLSNTPPLTEYFLNDKYQEELNFDNPLGMRGEIAKSYAELIKQMWSGKFSYVTPRAFKTQVGRFAPQFSGYQQQDCQELLAFLLDGLHEDLNRIRKKPYIQLKDADGRPDKVVAEEAWENHLKRNDSIIVDIFHGLFKSTLVCPECAKISVTFDPFCYLTLPLPMKKERTLEVYLVRMDPLTKPMQYKVVVPKIGNILDLCTALSALSGIPADKMIVTDIYNHRFHRIFAMDENLSSIMERDDIYVFEININRTEDTEHVIIPVCLREKFRHSSYTHHTGSSLFGQPFLMAVPRNNTEDKLYNLLLLRMCRYVKISTETEETEGSLHCCKDQNINGNGPNGIHEEGSPSEMETDEPDDESSQDQELPSENENSQSEDSVGGDNDSENGLCTEDTCKGQLTGHKKRLFTFQFNNLGNTDINYIKDDTRHIRFDDRQLRLDERSFLALDWDPDLKKRYFDENAAEDFEKHESVEYKPPKKPFVKLKDCIELFTTKEKLGAEDPWYCPNCKEHQQATKKLDLWSLPPVLVVHLKRFSYSRYMRDKLDTLVDFPINDLDMSEFLINPNAGPCRYNLIAVSNHYGGMGGGHYTAFAKNKDDGKWYYFDDSSVSTASEDQIVSKAAYVLFYQRQDTFSGTGFFPLDRETKGASAATGIPLESDEDSNDNDNDIENENCMHTN
# Variants of: B1
# Assay: coIP
# Settings: with EPS15 (endogenous) [human (endogenous in a human melanoma cell line and in HEK293T)]; HEK293T cells; n = 3; read off a plot
row,percent of parent [% Co-IP],Variant
1,22,chain 1 I382R

# Variants of: B2
# Assay: coIP
# Design: reference not given here
# Settings: with TOLLIP (endogenous) [human (endogenous in a human melanoma cell line and in HEK293T)]; HEK293T cells; n = 3; read off a plot
row,percent of parent [% Co-IP],Variant
1,12,chain 1 I382R

# Variants of: B3
# Assay: coIP
# Settings: with USP15 (endogenous) [human (endogenous in a human melanoma cell line and in HEK293T)]; HEK293T cells; n = 3; read off a plot
row,percent of parent [% Co-IP],Variant
1,27,chain 1 I382R
